Target: human carcinoembryonic antigen (CEA) (Homo sapiens, UniProt P06731)
Assay: flow cytometry on cells

Sequence of human carcinoembryonic antigen (CEA) (P06731 35-685): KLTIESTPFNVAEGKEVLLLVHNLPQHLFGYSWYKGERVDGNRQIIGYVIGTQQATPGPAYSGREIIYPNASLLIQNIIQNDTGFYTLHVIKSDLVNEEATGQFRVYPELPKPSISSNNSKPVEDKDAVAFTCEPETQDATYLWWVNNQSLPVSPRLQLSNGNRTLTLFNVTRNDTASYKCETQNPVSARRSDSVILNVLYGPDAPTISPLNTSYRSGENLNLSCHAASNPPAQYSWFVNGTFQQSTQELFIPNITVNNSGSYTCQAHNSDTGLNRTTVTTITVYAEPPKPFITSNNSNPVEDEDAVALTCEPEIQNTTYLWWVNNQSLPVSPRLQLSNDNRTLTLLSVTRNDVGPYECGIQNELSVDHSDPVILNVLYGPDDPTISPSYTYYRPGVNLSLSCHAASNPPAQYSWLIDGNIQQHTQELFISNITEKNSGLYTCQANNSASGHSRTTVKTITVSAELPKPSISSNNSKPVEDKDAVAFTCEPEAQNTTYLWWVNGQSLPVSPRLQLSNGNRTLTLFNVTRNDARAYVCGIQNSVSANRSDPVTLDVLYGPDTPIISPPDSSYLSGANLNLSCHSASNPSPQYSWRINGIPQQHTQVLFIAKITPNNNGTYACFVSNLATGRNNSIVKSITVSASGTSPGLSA

B1: Sm3E-TNF (scFv, V domains shown)
VH: QVKLEQSGAEVVKPGASVKLSCKASGFNIKDSYMHWLRQGPGQRLEWIGWIDPENGDTEYAPKFQGKATFTTDTSANTAYLGLSSLRPEDTAVYYCNEGTPTGPYYFDYWGQGTLVTVSS
VL: ENVLTQSPSSMSVSVGDRVTIACSASSSVPYMHWLQQKPGKSPKLLIYLTSNLASGVPSRFSGSGSGTDYSLTISSVQPEDAATYYCQQRSSYPLTFGGGTKLEIK
B1: binds.

Source: doi:10.1101/698563 (bioRxiv, 2019)
